Paper PMC12403835
pKd: −log10 of the molar value.

Tests used:
C1q complement component = C1q complement component (UniProt P02745); assay: BLI
FcgR3a(F), biotinylated = FcgR3a(F), biotinylated (UniProt P08637); assay: SPR
FcgR3a(V), biotinylated = FcgR3a(V), biotinylated (UniProt P08637); assay: SPR
FcgR3b Biotinylated = FcgR3b Biotinylated (UniProt O75015); assay: SPR
Sequence of UniProt O75015 (O75015 17-200): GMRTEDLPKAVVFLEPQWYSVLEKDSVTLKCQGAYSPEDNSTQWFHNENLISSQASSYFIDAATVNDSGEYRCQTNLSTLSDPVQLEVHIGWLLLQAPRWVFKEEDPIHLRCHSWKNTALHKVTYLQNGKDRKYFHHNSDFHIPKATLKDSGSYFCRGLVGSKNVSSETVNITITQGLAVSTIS

Sequence of UniProt P02745 (P02745 23-245, chain 1 of 3): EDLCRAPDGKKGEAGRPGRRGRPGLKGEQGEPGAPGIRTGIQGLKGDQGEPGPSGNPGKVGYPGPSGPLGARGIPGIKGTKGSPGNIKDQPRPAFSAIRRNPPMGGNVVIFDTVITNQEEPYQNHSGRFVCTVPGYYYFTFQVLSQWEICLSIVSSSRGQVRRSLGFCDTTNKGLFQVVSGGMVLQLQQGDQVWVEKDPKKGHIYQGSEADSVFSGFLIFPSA
Sequence of UniProt P02745 (P02746 28-253, chain 2 of 3, further chain): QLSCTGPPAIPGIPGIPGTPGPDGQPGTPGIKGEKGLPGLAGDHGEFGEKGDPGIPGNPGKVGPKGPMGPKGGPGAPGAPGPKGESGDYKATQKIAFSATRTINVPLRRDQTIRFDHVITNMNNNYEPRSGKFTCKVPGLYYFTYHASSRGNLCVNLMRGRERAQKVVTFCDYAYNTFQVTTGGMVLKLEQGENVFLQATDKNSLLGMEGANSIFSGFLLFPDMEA
Sequence of UniProt P02745 (P02747 29-245, chain 3 of 3, further chain): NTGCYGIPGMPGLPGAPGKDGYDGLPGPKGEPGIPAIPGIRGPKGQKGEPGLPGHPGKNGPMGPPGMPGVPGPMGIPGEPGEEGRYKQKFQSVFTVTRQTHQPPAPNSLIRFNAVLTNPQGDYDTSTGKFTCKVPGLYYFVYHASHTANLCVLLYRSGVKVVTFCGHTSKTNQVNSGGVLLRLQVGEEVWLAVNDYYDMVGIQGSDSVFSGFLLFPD

Q: How did the pKd (C1q complement component) turn out when CIS43 wild-type mAb (IgG1m3) was run?
A: The pKd was 8.74.

Q: What about the pKd (FcgR3a(F), biotinylated) of the same substance?
A: Its pKd is 5.60.

Q: And the pKd (FcgR3a(V), biotinylated)?
A: Its pKd is 6.23.

Q: What about the pKd (FcgR3b Biotinylated) of the same substance?
A: Its pKd is 5.28.

Q: How did the pKd (C1q complement component) turn out when CIS43-LS-AFUC (afucosylated CIS43-LS) was run?
A: The pKd was 8.77.

Q: And the pKd (FcgR3a(F), biotinylated)?
A: Its pKd is 6.80.

Q: And the pKd (FcgR3b Biotinylated)?
A: The pKd was 6.48.

Q: With CIS43-LS (IgG1m3-LS) as the substance, how does the pKd (C1q complement component) read?
A: Its pKd is 8.82.

Q: And the pKd (FcgR3a(F), biotinylated)?
A: Its pKd is 5.56.

Q: And the pKd (FcgR3a(V), biotinylated)?
A: The pKd was 6.23.

Q: And the pKd (FcgR3b Biotinylated)?
A: The pKd was 5.30.

Q: CIS43-LS-G236A (IgG1m3-LS-GA) was tested. Which pKd (FcgR3a(F), biotinylated) did it give?
A: The pKd was 5.34.

Q: And the pKd (FcgR3a(V), biotinylated)?
A: Its pKd is 5.90.

Q: And the pKd (FcgR3b Biotinylated)?
A: Its pKd is 4.76.

Q: CIS43-LS-GAALIE (IgG1m3-LS-GAALIE) was tested. Which pKd (FcgR3b Biotinylated) did it give?
A: Its pKd is 5.99.
